Common to all, as to assay: FACS, HEK293F
For orientation: A flow cytometer gives signals particle by particle.

The target of assay [1] is T1, human CD137 mutant Hu_FSS53AAA on HEK293F cells (human, UniProt Q07011 18-255).
T1 chain: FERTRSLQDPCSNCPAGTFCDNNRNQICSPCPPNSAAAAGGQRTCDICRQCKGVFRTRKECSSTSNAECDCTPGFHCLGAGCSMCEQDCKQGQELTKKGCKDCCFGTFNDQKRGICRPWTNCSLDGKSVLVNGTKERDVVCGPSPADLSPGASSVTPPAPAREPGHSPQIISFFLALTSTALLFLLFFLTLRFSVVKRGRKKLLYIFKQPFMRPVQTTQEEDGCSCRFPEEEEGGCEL
Method: (§1) Transfected cells were washed in pre-chilled staining buffer (PBS supplemented with 2% FBS), then incubated with 100 nM test antibodies for 1 hr on ice. […] Samples were washed once with staining buffer prior to analysis by flow cytometry.
(§2) To determine the binding regions of the tested antibodies at amino acid residue level, a series of mutations (Table 5) were made at the extracellular domain of human CD137. These CD137 mutation plasmids were used to transfect HEK293F cells.

For assay [2], the target named is human CD137 mutant Hu_FN125AA on HEK293F cells (human, UniProt Q07011 18-255).
Method: as §1, §2
Assay [3] concerns the target human CD137 mutant Hu_PW135AA on HEK293F cells (human, UniProt Q07011 18-255).
Method: as §1, §2
Assay [4] deals with human CD137 mutant Hu_GT150AA on HEK293F cells (human, UniProt Q07011 18-255).
Method: as §1, §2

B1: reference antibody AC1121 (antibody, V domains shown)
VH: QVQLQQWGAGLLKPSETLSLTCAVYGGSFSGYYWSWIRQSPEKGLEWIGEINHGGYVTYNPSLESRVTISVDTSKNQFSLKLSSVTAADTAVYYCARDYGPGNYDWYFDLWGRGTLVTVSS
VL: EIVLTQSPATLSLSPGERATLSCRASQSVSSYLAWYQQKPGQAPRLLIYDASNRATGIPARFSGSGSGTDFTLTISSLEPEDFAVYYCQQRSNWPPALTFGGGTKVEIK
Regarding B1, the binding result in assay [1], in assay [2], in assay [3] and in assay [4] was “binds” each time.

B2: AG10058 (antibody, human IgG4 S228P, kappa, V domains shown)
VH: EVQLVESGGGLVQPGGSLRLSCAASGFSLSTSGVGVGWIRQAPGKGLEWLALIDWDDDKYYSPSLKSRLTISRDNSKNTLYLQLNSLRAEDTAVYYCARGGSDTVLGDWFAYWGQGTLVTVSS
VL: DIQLTQSPSSLSASVGDRVTITCRASQSVSPYLAWYQQKPGKAPKLLIYDASSLESGVPSRFSGSGSGTDFTLTISSLQPEDFATYYCQQGYSLWTFGQGTKVEIKR
notes: IgG4 (S241P)
For B2, the binding result in assay [3] and in assay [4] was “binds” throughout.

B3: AG10059 (antibody, human IgG4 S228P, kappa, V domains shown)
VH: EVQLVESGGGLVQPGGSLRLSCAASGYSITSGHYWAWIRQAPGKGLEWVSSISGYGSTTYYADSVKGRFTISRDNSKNTLYLQLNSLRAEDTAVYYCARGGSDAVLGDWFAYWGQGTLVTVSS
VL: DIQLTQSPSSLSASVGDRVTITCRASQGIGSFLAWYQQKPGKAPKLLIYDASNLETGVPSRFSGSGSGTDFTLTISSLQPEDFATYYCQQGYYLWTFGQGTKVEIKR
notes: IgG4 (S241P)
As to B3, the binding result in assay [3] and in assay [4] was “binds” throughout.

Values taken from patent US20200369776A1 (ADAGENE, published 2020).
